In patent US20170253656A1 (SUTRO BIOPHARMA, published 2017):
Where a chain is given by its changes, count along the chain named.

B1: HC 1251_A06 (wt)/LC 1337_A07 (wt) (antibody, human IgG1, kappa, V domains shown)
VH: QVQLVESGGGVVQPGRSLRLSCAASGFDFSSYGMHWVRQAPDKGLEWVAVIWDDGSDRYYADSVKGRFTISRDNSKNTLYLQMNSLRAEDTAVYYCARGGTRVLGAIHGTDVWGQGTTVTVSS
VL: DIQMTQSPSSLSASVGDRVTITCRASQGISSWVAWYQQKPEKAPKSLIYGASRLQSGVPSRFSGSGSGTDFTLTISSLQPEDFATYYCQQYHTYPLTFGGGTKVEIKR
notes: IgG format
B2: HC 1251_B08 (g)/LC 1337_A09 (wt) (antibody, human IgG1, kappa, V domains shown)
VH: QVQLVESGGGVVQPGRSLRLSCAASGFNFSDYGMHWVRQAPGKGLEWVAVIWYDGSISYYADSVKGRFTISRDNSKNTLYLQMNSLRAEDTAVYYCARGGTVEHGAVYGTDVWGQGTTVTVSS
VL: B1 VL with S30G, V33L, G50A, S52D
notes: IgG format
B3: HC 1251_B08 (wt)/LC 1337_A07 (wt) (antibody, human IgG1, kappa, V domains shown)
VH: B2 VH with G42D, T117A
VL: B1 VL
notes: IgG format
B4: HC 1251_B08 (g)/LC 1337_A10 (g) (antibody, human IgG1, kappa, V domains shown)
VH: B2 VH
VL: B1 VL with L11V, E41G, S46L, A51S, H92N
notes: IgG format
B5: HC 1251_A06 (g)/LC 1337_A07 (wt) (antibody, human IgG1, kappa, V domains shown)
VH: B1 VH with D42G
VL: B1 VL
notes: IgG format
B6: HC 1251_B08 (g)/LC 1275_C10 (g) (antibody, human IgG1, kappa, V domains shown)
VH: B2 VH
VL: B1 VL with L11V, I29V, V33L, E41G, S46L, G50S, S52R, R53Y, H92N, T93L
notes: IgG format
B7: HC 1251_B08 (g)/LC 1275_C10 (wt) (antibody, human IgG1, kappa, V domains shown)
VH: B2 VH
VL: B1 VL with I29V, V33L, G50S, S52R, R53Y, H92N, T93L
notes: IgG format
B8: HC 1251_B08 (g)/LC 1337_A07 (g) (antibody, human IgG1, kappa, V domains shown)
VH: B2 VH
VL: B1 VL with L11V, E41G, S46L
notes: IgG format
B9: HC 1251_B08 (g)/LC 1337_A09 (g) (antibody, human IgG1, kappa, V domains shown)
VH: B2 VH
VL: B1 VL with L11V, S30G, V33L, E41G, S46L, G50A, S52D
notes: IgG format
B10: HC 1251_A06 (wt)/LC 1337_A07 (g) (antibody, human IgG1, kappa, V domains shown)
VH: B1 VH
VL: B1 VL with L11V, E41G, S46L
notes: IgG format
B11: HC 1251_B08 (wt)/LC 1337_A07 (g) (antibody, human IgG1, kappa, V domains shown)
VH: B2 VH with G42D, T117A
VL: B1 VL with L11V, E41G, S46L
notes: IgG format
B12: HC 1251_B08 (wt)/LC 1337_A09 (g) (antibody, human IgG1, kappa, V domains shown)
VH: B2 VH with G42D, T117A
VL: B1 VL with L11V, S30G, V33L, E41G, S46L, G50A, S52D
notes: IgG format
B13: HC 1251_B08 (g)/LC 1337_A07 (wt) (antibody, human IgG1, kappa, V domains shown)
VH: B2 VH
VL: B1 VL
notes: IgG format
B14: HC 1251_A06 (g)/LC 1275_C10 (wt) (antibody, human IgG1, kappa, V domains shown)
VH: B1 VH with D42G
VL: B1 VL with I29V, V33L, G50S, S52R, R53Y, H92N, T93L
notes: IgG format
B15: HC 1251_A06 (g)/LC 1337_A09 (g) (antibody, human IgG1, kappa, V domains shown)
VH: B1 VH with D42G
VL: B1 VL with L11V, S30G, V33L, E41G, S46L, G50A, S52D
notes: IgG format
B16: HC 1251_A06 (wt)/LC 1337_A10 (g) (antibody, human IgG1, kappa, V domains shown)
VH: B1 VH
VL: B1 VL with L11V, E41G, S46L, A51S, H92N
notes: IgG format
B17: HC 1251_B08 (wt)/LC 1275_C10 (g) (antibody, human IgG1, kappa, V domains shown)
VH: B2 VH with G42D, T117A
VL: B1 VL with L11V, I29V, V33L, E41G, S46L, G50S, S52R, R53Y, H92N, T93L
notes: IgG format
B18: HC 1251_A06 (wt)/LC 1275_C10 (g) (antibody, human IgG1, kappa, V domains shown)
VH: B1 VH
VL: B1 VL with L11V, I29V, V33L, E41G, S46L, G50S, S52R, R53Y, H92N, T93L
notes: IgG format
B19: HC 1251_B08 (g)/LC 1337_A10 (wt) (antibody, human IgG1, kappa, V domains shown)
VH: B2 VH
VL: B1 VL with A51S, H92N
notes: IgG format
B20: HC 1251_B08 (wt)/LC 1337_A10 (wt) (antibody, human IgG1, kappa, V domains shown)
VH: B2 VH with G42D, T117A
VL: B1 VL with A51S, H92N
notes: IgG format
B21: HC 1251_A06 (g)/LC 1337_A09 (wt) (antibody, human IgG1, kappa, V domains shown)
VH: B1 VH with D42G
VL: B1 VL with S30G, V33L, G50A, S52D
notes: IgG format
B22: HC 1251_A06 (g)/LC 1337_A07 (g) (antibody, human IgG1, kappa, V domains shown)
VH: B1 VH with D42G
VL: B1 VL with L11V, E41G, S46L
notes: IgG format
B23: HC 1251_B08 (wt)/LC 1337_A09 (wt) (antibody, human IgG1, kappa, V domains shown)
VH: B2 VH with G42D, T117A
VL: B1 VL with S30G, V33L, G50A, S52D
notes: IgG format
B24: HC 1251_A06 (g)/LC 1337_A10 (wt) (antibody, human IgG1, kappa, V domains shown)
VH: B1 VH with D42G
VL: B1 VL with A51S, H92N
notes: IgG format
B25: HC 1251_B08 (wt)/LC 1337_A10 (g) (antibody, human IgG1, kappa, V domains shown)
VH: B2 VH with G42D, T117A
VL: B1 VL with L11V, E41G, S46L, A51S, H92N
notes: IgG format
B26: HC 1251_A06 (wt)/LC 1275_C10 (wt) (antibody, human IgG1, kappa)
heavy: not shown
light: MDIQMTQSPSSLSASVGDRVTITCRASQGVSSWLAWYQQKPEKAPKSLIYSARYLQSGVPSRFSGSGSGTDFTLTISSLQPEDFATYYCQQYNLYPLTFGGGTKVEIKRTVAAPSVFIFPPSDEQLKSGTASVVCLLNNFYPREAKVQWKVDNALQSGNSQESVTEQDSKDSTYSLSSTLTLSKADYEKHKVYACEVTHQGLSSPVTKSFNRGEC
notes: IgG format
B27: HC 1251_A06 (g)/LC 1337_A10 (g) (antibody, human IgG1, kappa, V domains shown)
VH: B1 VH with D42G
VL: B1 VL with L11V, E41G, S46L, A51S, H92N
notes: IgG format
B28: HC 1251_A06 (wt)/LC 1337_A10 (wt) (antibody, human IgG1, kappa, V domains shown)
VH: B1 VH
VL: B1 VL with A51S, H92N
notes: IgG format
B29: HC 1251_A06 (wt)/LC 1337_A09 (g) (antibody, human IgG1, kappa, V domains shown)
VH: B1 VH
VL: B1 VL with L11V, S30G, V33L, E41G, S46L, G50A, S52D
notes: IgG format
B30: HC 1251_B08 (wt)/LC 1275_C10 (wt) (antibody, human IgG1, kappa, V domains shown)
VH: B2 VH with G42D, T117A
VL: B1 VL with I29V, V33L, G50S, S52R, R53Y, H92N, T93L
notes: IgG format
B31: HC 1251_A06 (wt)/LC 1337_A09 (wt) (antibody, human IgG1, kappa, V domains shown)
VH: B1 VH
VL: B1 VL with S30G, V33L, G50A, S52D
notes: IgG format
B32: HC 1251_A06 (g)/LC 1275_C10 (g) (antibody, human IgG1, kappa, V domains shown)
VH: B1 VH with D42G
VL: B1 VL with L11V, I29V, V33L, E41G, S46L, G50S, S52R, R53Y, H92N, T93L
notes: IgG format

biological target: T1, hu-CD74 antigen (R&D SYSTEMS catalog #3590-CD-050) (human, UniProt P04233-2 73-232, limits assumed); experiment: SPR (Biacore T200), IgG captured on anti-human Fc, rhCD74 analyte
T1 construct: Bought antigen; also called rhCD74; human CD74
T1 sequence (looked up): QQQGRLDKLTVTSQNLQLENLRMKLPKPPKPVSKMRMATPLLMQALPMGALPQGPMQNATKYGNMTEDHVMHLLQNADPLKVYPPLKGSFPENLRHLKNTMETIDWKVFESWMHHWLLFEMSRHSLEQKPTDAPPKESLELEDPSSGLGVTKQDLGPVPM
Description: Kinetic binding experiments were performed at 25° C. using 1×HBS-EP+buffer. Kinetic data was collected by injecting test and control antibodies at concentrations of 10, 5 and 2.5 μg/mL for 12 s at a flow rate of 10 μl/min on flow cells 2, 3 and 4 respectively, followed by a buffer wash for 30 s at the same flow rate. Kinetic characterization of antibody samples was carried out with 8 concentrations of a 1:2 dilution series of rhCD74 antigen (R&D Systems) and 2 injections of 0 nM antigen (buffer only). […] Between each ligand capture and analyte binding cycle, regeneration was carried out using 2 injections of 3M MgCl₂ for 30 seconds at 30 μL/min, followed by a 30 second buffer wash step.

Binder	Kd [nM]	koff [s⁻¹]	kon [M⁻¹ s⁻¹]
B1	0.168	0.0001	598000
B2	0.64	0.000106	166000
B3	0.211	8.01e-05	379000
B4	0.254	9.97e-05	392000
B5	0.166	9.4e-05	568000
B6	0.332	0.000102	306000
B7	0.862	0.000155	180000
B8	0.239	7.76e-05	325000
B9	0.252	7.77e-05	309000
B10	0.205	0.000136	660000
B11	0.611	0.000142	232000
B12	0.347	0.000115	332000
B13	0.349	9.23e-05	265000
B14	0.341	0.000177	520000
B15	0.131	7.26e-05	552000
B16	0.411	0.000235	571000

Binder	Kd [nM]	koff [s⁻¹]	kon [M⁻¹ s⁻¹]
B17	0.437	0.000124	284000
B18	0.348	0.000166	478000
B19	0.385	0.00012	312000
B20	0.235	0.000115	491000
B21	0.189	8.63e-05	457000
B22	0.168	7.1e-05	424000
B23	0.108	0.000116	1.07e+06
B24	0.188	9.03e-05	479000
B25	0.957	0.000183	191000
B26	0.245	0.00016	654000
B27	0.389	0.000148	380000
B28	0.205	0.000174	847000
B29	0.18	0.00011	610000
B30	0.191	0.000119	623000
B31	0.156	9.19e-05	588000
B32	0.209	0.000148	705000
